Like-named read-outs stand apart in the source and are kept apart here.
T1: muNotch2-EGF6-12.K268R (mouse)
T1 chain: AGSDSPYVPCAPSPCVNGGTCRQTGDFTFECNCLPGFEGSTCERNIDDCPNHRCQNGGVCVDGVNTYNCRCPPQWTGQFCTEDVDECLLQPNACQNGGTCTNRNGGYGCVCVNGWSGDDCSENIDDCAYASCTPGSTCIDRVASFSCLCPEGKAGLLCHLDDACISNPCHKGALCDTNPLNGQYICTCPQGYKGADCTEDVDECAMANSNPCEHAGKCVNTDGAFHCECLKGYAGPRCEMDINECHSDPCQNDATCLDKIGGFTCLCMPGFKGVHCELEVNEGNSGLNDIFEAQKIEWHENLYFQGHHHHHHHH

T2: gpNotch2-EGF6-12 (guinea pig)
T2 construct: also called guinea pig Notch2 EGF6-12
T2 chain: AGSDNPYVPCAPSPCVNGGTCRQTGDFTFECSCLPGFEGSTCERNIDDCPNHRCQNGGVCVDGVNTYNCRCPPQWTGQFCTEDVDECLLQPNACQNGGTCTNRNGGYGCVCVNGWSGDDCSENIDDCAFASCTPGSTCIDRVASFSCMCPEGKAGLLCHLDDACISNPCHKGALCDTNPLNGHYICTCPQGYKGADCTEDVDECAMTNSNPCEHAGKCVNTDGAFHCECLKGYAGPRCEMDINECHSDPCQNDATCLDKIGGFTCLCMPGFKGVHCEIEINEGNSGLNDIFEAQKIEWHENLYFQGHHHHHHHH

T3: huNotch2-EGF4-7 (human)
T3 chain: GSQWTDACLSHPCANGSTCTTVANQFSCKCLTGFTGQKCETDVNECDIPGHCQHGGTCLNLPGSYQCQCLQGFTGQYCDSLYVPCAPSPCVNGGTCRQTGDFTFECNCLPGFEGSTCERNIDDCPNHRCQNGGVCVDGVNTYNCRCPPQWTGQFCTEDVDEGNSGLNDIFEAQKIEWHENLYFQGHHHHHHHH

T4: huNotch2-EGF5-8 (human)
T4 chain: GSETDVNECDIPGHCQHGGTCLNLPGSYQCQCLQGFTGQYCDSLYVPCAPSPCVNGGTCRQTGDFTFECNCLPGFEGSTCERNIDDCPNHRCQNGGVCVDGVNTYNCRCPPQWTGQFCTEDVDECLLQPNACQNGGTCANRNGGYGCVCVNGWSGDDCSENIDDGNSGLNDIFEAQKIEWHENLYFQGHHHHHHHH

T5: huNotch2-EGF7-9 (human)
T5 chain: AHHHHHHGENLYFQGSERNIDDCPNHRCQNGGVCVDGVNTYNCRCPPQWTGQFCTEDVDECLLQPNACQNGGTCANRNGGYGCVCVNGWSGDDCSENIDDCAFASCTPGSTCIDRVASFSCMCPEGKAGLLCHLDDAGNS

T6: huNotch2-EGF6-10 (human, UniProt Q04721 219-418)
T6 construct: also called human Notch2 EGF6-10
T6 sequence: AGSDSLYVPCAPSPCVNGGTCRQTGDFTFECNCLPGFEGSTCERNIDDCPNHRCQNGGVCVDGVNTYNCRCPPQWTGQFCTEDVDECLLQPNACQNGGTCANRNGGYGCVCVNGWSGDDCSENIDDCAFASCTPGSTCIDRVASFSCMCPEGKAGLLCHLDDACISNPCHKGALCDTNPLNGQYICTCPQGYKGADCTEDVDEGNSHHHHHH


Experiments:
muNotch2-EGF6-12.K268R = target: T1, muNotch2-EGF6-12.K268R; test: SPR BIAcore, antibody captured on protein A, 37 C
Procedure: (§1) Binding of the anti-Notch2 antibodies to Notch2 from additional species and to constructs comprising different EGF repeat regions was evaluated by BIAcore™. For this experiment, the antibodies with human constant regions were captured on a protein A chip to achieve approximately 200 RU. Ten-fold serial dilutions of various antigens were injected in HIBS-P buffer with additional 3 mM CaCl₂ at 37° C. with a flow rate of 100 μL/min.

gpNotch2-EGF6-12 = target: T2, gpNotch2-EGF6-12; test: SPR BIAcore, antibody captured on protein A, 37 C
Procedure: as §1

huNotch2-EGF4-7 = target: T3, huNotch2-EGF4-7; test: SPR BIAcore, antibody captured on protein A, 37 C
Procedure: as §1

huNotch2-EGF5-8 = target: T4, huNotch2-EGF5-8; test: SPR BIAcore, antibody captured on protein A, 37 C
Procedure: as §1

huNotch2-EGF7-9 = target: T5, huNotch2-EGF7-9; test: SPR BIAcore, antibody captured on protein A, 37 C
Procedure: as §1

huNotch2-EGF6-10 [1] = target: T6, huNotch2-EGF6-10; test: SPR BIAcore, separate experiment, substantially as for Table 4
Procedure: (§2) The binding affinities of the antibodies was determined by BIAcore™ T200 machine. Rabbit antibodies were expressed as chimeric antibodies with rabbit variable domains and human constant domains. Rat antibodies were expressed as chimeric antibodies with rat variable domains and human constant regions. Humanized antibodies were expressed in the human IgG1 backbone. For kinetics measurements, antibodies were captured on research grade protein A chip (GE Healthcare) to achieve approximately 300 RU. Ten-fold serial dilutions of huNotch2-EGF6-10 were injected in HBS-P buffer with additional 3 mM CaCl₂ at 37° C. with a flow rate of 100 μL/min. Association rates (ka) and dissociation rates (kd) were calculated using a 1:1 Langmuir binding model (BIAcore™ T200 Evaluation Software version 2.0). The equilibrium dissociation constant (KD) was calculated as the ratio kd/ka.
In a separate experiment, the binding affinities of the humanized versions of the rat 3107 antibody were determined, substantially as described above.

[2] = target: T7, human Notch2 on U-87 MG cells (human, UniProt Q04721 26-2471); test: cell-based or functional assay
T7 sequence (Q04721 26-2471): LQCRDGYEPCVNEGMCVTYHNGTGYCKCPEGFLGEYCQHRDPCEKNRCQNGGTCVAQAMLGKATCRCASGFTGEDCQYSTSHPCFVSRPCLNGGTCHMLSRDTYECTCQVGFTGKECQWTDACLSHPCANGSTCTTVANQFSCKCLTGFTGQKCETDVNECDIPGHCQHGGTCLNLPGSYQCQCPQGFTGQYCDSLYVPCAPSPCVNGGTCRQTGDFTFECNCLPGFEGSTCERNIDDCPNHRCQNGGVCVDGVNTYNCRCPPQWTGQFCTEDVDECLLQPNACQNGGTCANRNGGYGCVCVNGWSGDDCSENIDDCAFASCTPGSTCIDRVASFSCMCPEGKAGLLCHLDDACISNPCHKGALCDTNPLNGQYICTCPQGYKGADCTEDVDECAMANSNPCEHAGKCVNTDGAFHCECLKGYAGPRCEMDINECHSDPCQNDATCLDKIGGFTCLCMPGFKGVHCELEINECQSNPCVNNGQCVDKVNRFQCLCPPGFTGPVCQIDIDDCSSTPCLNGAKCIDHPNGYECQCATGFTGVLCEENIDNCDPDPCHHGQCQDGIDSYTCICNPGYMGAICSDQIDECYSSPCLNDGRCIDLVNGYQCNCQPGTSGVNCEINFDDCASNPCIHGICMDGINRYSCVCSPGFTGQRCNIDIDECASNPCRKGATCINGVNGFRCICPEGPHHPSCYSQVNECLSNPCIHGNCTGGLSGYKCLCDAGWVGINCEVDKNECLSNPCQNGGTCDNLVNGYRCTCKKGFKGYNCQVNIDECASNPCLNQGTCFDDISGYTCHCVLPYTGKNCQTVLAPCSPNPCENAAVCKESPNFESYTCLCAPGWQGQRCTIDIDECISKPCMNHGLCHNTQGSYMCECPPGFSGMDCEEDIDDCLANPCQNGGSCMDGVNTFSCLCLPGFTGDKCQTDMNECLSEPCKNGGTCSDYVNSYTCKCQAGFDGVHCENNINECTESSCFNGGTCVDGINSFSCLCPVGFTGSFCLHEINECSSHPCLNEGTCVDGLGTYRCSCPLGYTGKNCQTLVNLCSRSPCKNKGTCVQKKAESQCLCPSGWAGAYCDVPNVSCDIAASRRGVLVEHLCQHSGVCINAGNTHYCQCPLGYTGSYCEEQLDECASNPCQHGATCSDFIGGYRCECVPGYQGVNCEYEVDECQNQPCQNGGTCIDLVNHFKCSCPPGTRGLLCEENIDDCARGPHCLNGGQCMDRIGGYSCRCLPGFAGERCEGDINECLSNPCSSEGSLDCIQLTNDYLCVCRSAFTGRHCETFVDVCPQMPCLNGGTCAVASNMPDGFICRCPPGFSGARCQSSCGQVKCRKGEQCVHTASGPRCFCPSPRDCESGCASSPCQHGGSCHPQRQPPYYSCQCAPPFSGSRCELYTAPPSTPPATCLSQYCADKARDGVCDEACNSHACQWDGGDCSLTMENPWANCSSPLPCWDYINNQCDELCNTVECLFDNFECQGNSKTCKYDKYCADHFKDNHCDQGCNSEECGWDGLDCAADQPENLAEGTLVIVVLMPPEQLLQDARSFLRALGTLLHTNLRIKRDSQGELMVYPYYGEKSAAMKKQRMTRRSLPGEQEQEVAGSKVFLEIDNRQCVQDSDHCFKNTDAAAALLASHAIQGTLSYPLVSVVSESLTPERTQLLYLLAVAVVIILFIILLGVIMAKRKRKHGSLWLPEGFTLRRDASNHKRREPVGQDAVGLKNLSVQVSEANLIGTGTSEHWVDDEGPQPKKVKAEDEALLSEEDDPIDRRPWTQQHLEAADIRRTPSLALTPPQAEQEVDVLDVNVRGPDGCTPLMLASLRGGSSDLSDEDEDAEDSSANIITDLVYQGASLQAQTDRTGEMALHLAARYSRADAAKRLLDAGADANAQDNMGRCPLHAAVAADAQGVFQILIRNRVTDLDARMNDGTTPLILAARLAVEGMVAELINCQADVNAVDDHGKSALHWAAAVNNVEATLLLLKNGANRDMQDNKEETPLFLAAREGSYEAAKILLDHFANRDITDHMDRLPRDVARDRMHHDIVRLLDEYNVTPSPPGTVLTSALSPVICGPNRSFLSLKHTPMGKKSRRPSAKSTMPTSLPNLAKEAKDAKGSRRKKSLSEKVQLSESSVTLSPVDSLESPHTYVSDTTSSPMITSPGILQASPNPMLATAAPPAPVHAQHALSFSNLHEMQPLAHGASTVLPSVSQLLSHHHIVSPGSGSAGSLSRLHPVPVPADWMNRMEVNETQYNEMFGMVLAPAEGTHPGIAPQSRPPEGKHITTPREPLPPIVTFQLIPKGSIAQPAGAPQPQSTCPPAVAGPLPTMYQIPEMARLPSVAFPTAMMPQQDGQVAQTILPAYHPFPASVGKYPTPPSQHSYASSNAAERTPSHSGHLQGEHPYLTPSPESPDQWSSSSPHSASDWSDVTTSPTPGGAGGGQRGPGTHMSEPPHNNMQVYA

[3] = target: T7, human Notch2 on U-87 MG cells; test: cell-based or functional assay; remark: listed apart in the source
huNotch2-EGF6-10 [4] = target: T6, huNotch2-EGF6-10; test: SPR BIAcore T200, antibody captured on protein A, 37 C
Procedure: as §2

[5] = target: T7, human Notch2 on U-87 MG cells; test: KinExA equilibrium whole-cell analysis on Notch2-expressing U-87 cells
Procedure: After incubation, the cells were centrifuged and the supernatants, containing the free fraction of antibody or Fab construct, were removed without disturbing the cell pellets and transferred onto a KinExA 3200 instrument with autosampler (Sapidyne Instruments Inc). Each supernatant was flowed over a solid phase composed of polystyrene beads (#440176, Sapidyne Instruments Inc) coated with biotinylated goat anti-human Immunoglobulin G (IgG) heavy+light (H+L) (#109-065-003, Jackson ImmunoResearch Laboratories Inc.) or biotinylated Notch2 extracellular domain to capture the free antibody or Fab construct. […] The fluorescent signals were recorded and converted to a voltage signal that is directly proportional to the amount of free antibody or Fab construct in the equilibrated sample. Using the built in Equilibrium Whole Cell analysis method, the KinExA Pro software performed a least squares analysis on the measured data to fit optimal solutions for the KD and the activity of the free antibody or Fab construct to a curve representative of a 1:1 reversible bi-molecular interaction. […] A N-curve analysis was applied for the testing of the two concentrations of antibody or Fab construct to determine the KD on Notch2-expressing U-87 cells.
The binding kinetics were determined using a similar assay format as the one used for the equilibrium analysis, with the exception that measurements were collected “pre-equilibrium” and the binding signals were plotted as a function of time. For the KinExA direct method, anti-Notch2 antibody and Fab formats were incubated with Notch2-expressing U-87 cells at a fixed concentration (Table 12) and aliquots of the cell binding solution were collected at different time points to determine the fraction of free antibody or Fab format. The KinExA Pro software was then used to determine the association rate constant (Kₒₙ).

[6] = target: T7, human Notch2 on U-87 MG cells; test: cell-based or functional assay; remark: listed apart in the source

Binder	binding result (muNotch2-EGF6-12.K268R)	binding result (gpNotch2-EGF6-12)	binding result (huNotch2-EGF4-7)	binding result (huNotch2-EGF5-8)	binding result (huNotch2-EGF7-9)	Jagged1 IC50 [3]	Kd (huNotch2-EGF6-10 [4])	koff (huNotch2-EGF6-10 [4])	kon (huNotch2-EGF6-10 [4])	Kd [5]	other results
rat.3107 (rat/human chimeric anti-Notch2 antibody 3107) (antibody, V domains shown) VH: QVQLQQSGAELAKSGSSVKISCKASGYTFSNYVIHWIKQTTGQAPEWTGYIIPGSGGTKFNEKFKGKATLTVDKSSTTAYMQLSSLTPVDTAVYYCARDGAGSFTYWGQGTLVTVSS VL: DVLMTQTPVSLPVSLGGQVSISCRSSQSLVHSDGNTYLHWFLQKPGQSPQLLIYRISNRFSGVPDRFSGSGSGTDFTLKISRVEPEDLGVYYCLQSTHFPDTFGGGTKVEIK	binds	binds	binds	binds	binds	2.1 nM	5 nM	0.00182 s⁻¹	363000 M⁻¹ s⁻¹		Kd (huNotch2-EGF6-10 [1]): 9.12 nM; koff (huNotch2-EGF6-10 [1]): 0.00312 s⁻¹; kon (huNotch2-EGF6-10 [1]): 342000 M⁻¹ s⁻¹; Jagged1 IC50 [2]: 4.88 nM
hu1B2.v102 (antibody, V domains shown, Human IgG1 backbone) VH: EVQLVESGGGLVQPGGSLKLSCAVSGFTFSDFYMEWVRQASGKGLEWVAAQRNKANDFSIVYSASVKDRFTISRDDSKSTLYLQMNSLKTEDTAVYYCSRDGGRLALDAWGQGTLVTVSS VL: DIQMTQSPSSVSASVGDRVTITCQTSEDIYSGLAWYQQKPGKSPKLLIYGASRLQDGVPSRFSGSGSGTDYTLTISSLQPEDFATYYCQQGFKYPLTFGGGTKVEIK	binds	binds	binds	binds	binds	1.59 nM	3.37 nM	0.00131 s⁻¹	387000 M⁻¹ s⁻¹		
1B2.v104.huFab.LC_K149C.MMTS_capped (Fab, V domains shown, engineered Cys (K149C) capped with MMTS, Monovalent Fab used in the KinExA experiments; also called Monovalent Fab) VH: EVQLVESGGGLVQPGGSLKLSCAVSGFTFSDFYMEWVRQASGKGLEWVAAQRNKANDFSIVYSASVKDRFTISRDDSKSTLYLQMNSLKTEDTAVYYCSRDGGKLALDAWGQGTLVTVSS VL: DIQMTQSPSSVSASVGDRVTITCQTSEDIYSGLAWYQQKPGKSPKLLIYGASRLQDGVPSRFSGSGSGTDYTLTISSLQPEDFATYYCQQGFKYPLTFGGGTKVEIKR										1.98 nM	
1B2.v104.Fab-huIgG1.N297G (antibody, V domains shown, Tetravalent Fab-IgG format, human IgG1 N297G; also called Tetravalent Fab-IgG; 1B2.v104 Fab-IgG) VH: EVQLVESGGGLVQPGGSLKLSCAVSGFTFSDFYMEWVRQASGKGLEWVAAQRNKANDFSIVYSASVKDRFTISRDDSKSTLYLQMNSLKTEDTAVYYCSRDGGKLALDAWGQGTLVTVSS VL: DIQMTQSPSSVSASVGDRVTITCQTSEDIYSGLAWYQQKPGKSPKLLIYGASRLQDGVPSRFSGSGSGTDYTLTISSLQPEDFATYYCQQGFKYPLTFGGGTKVEIK										0.195 nM	
1B2.v104.huIgG1.N297G (antibody, V domains shown, Human IgG1 with N297G; also called Bivalent IgG antibody; 1B2.v104 IgG) VH: EVQLVESGGGLVQPGGSLKLSCAVSGFTFSDFYMEWVRQASGKGLEWVAAQRNKANDFSIVYSASVKDRFTISRDDSKSTLYLQMNSLKTEDTAVYYCSRDGGKLALDAWGQGTLVTVSS VL: DIQMTQSPSSVSASVGDRVTITCQTSEDIYSGLAWYQQKPGKSPKLLIYGASRLQDGVPSRFSGSGSGTDYTLTISSLQPEDFATYYCQQGFKYPLTFGGGTKVEIK										0.0353 nM	
hu1B2.v104 (antibody, V domains shown, Human IgG1 backbone; also called hu1B2.v014) VH: EVQLVESGGGLVQPGGSLKLSCAVSGFTFSDFYMEWVRQASGKGLEWVAAQRNKANDFSIVYSASVKDRFTISRDDSKSTLYLQMNSLKTEDTAVYYCSRDGGKLALDAWGQGTLVTVSS VL: DIQMTQSPSSVSASVGDRVTITCQTSEDIYSGLAWYQQKPGKSPKLLIYGASRLQDGVPSRFSGSGSGTDYTLTISSLQPEDFATYYCQQGFKYPLTFGGGTKVEIK	binds	binds	binds	binds	binds	2.48 nM	3.09 nM	0.0011 s⁻¹	357000 M⁻¹ s⁻¹		
1B2.v104.huFab.LC_K149C.dPEG_trimer (other, engineered Cys (K149C) joined through maleimide to Tri(Mal-PEG2-amide)-amine, also called 1B2.v104 Fab trimer; aN2.1B2.Fab-trimer) heavy: EVQLVESGGGLVQPGGSLKLSCAVSGFTFSDFYMEWVRQASGKGLEWVAAQRNKANDFSIVYSASVKDRFTISRDDSKSTLYLQMNSLKTEDTAVYYCSRDGGKLALDAWGQGTLVTVSSASTKGPSVFPLAPSSKSTSGGTAALGCLVKDYFPEPVTVSWNSGALTSGVHTFPAVLQSSGLYSLSSVVTVPSSSLGTQTYICNVNHKPSNTKVDKKVEPKSCD light: DIQMTQSPSSVSASVGDRVTITCQTSEDIYSGLAWYQQKPGKSPKLLIYGASRLQDGVPSRFSGSGSGTDYTLTISSLQPEDFATYYCQQGFKYPLTFGGGTKVEIKRTVAAPSVFIFPPSDEQLKSGTASVVCLLNNFYPREAKVQWCVDNALQSGNSQESVTEQDSKDSTYSLSSTLTLSKADYEKHKVYACEVTHQGLSSPVTKSFNRGEC										0.0335 nM	DLL Inhibition (IC50) [6]: > 700 nM; Jag1 Inhibition (IC50) [6]: 0.5 nM

Reference: patent US20230322958A1 (Genentech, published 2023)
